As usually defined, the stoichiometry N is a count of units in the complex or per binding partner.

Experiment [1] concerns the target Globodera pallida Clade 3 GS-like effector Gpa-GSS17 (Globodera pallida). Briefly: SEC; S200 analytical gel filtration column; purified proteins migrate between the 150 kDa and 75 kDa protein standards, at a mass consistent with a homodimer (50 kDa per subunit). (In general: In gel filtration, larger molecules generally elute earlier.)
Experiment [2] has as its target Globodera pallida Clade 3 GS-like effector Gpa-GSS22 (Globodera pallida). Described as above.
Experiment [3] addresses Globodera pallida Clade 3 GS-like effector Gpa-GSS30 (Globodera pallida). The description is as above.
Experiment [4] deals with Globodera pallida Clade 3 GS-like effector Gpa-GSS24 (Globodera pallida). Described as above.
Experiment [5] concerns the target T1, St-GSS1 (Solanum tuberosum, UniProt M1CSC4).
T1 construct: gene LOC102589405; His6-SUMO tag cleaved by 3C protease (pOPINS3C); E. coli SHuffle; homodimer, about 50 kDa per subunit
T1 sequence (M1CSC4 1-483): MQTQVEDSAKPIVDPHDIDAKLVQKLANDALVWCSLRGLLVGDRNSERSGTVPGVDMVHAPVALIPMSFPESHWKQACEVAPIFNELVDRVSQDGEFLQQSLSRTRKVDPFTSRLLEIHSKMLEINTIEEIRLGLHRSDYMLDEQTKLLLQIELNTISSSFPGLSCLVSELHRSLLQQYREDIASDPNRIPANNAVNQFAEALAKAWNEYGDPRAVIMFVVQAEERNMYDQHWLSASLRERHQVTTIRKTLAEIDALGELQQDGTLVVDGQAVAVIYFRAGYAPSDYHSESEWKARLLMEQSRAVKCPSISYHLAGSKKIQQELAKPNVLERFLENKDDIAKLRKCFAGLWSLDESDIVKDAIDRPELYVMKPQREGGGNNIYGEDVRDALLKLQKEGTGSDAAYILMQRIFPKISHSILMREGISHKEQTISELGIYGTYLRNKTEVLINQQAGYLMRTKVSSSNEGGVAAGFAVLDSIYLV
Briefly: malachite green phosphate release from ATP. It counts as biochemical. As to conditions: glycine, 20 mM MgCl2, 5 mM DTT, 100 mM HEPES pH 7.5, 30 °C.

In experiment [6] the target is T2, Gpa-GSS1 (Globodera pallida, UniProt A0A183BS86).
T2 construct: full-length; His6-SUMO tag cleaved by 3C protease (pOPINS3C); E. coli SHuffle; homodimer, about 50 kDa per subunit
Briefly: malachite green phosphate release from ATP. It counts as biochemical. Conditions: glycine, 20 mM MgCl2, 5 mM DTT, 100 mM HEPES pH 7.5, 30 °C.

Experiment [7] deals with Solanum tuberosum glutathione synthetase St-GSS1 (Solanum tuberosum). The experiment can be described thus: SEC; S200 analytical gel filtration column; purified proteins migrate between the 150 kDa and 75 kDa protein standards, at a mass consistent with a homodimer (50 kDa per subunit).
Experiment [8] has as its target Globodera pallida Clade 2 glutathione synthetase Gpa-GSS5 (Globodera pallida). The description is as above.
Experiment [9] has as its target Globodera pallida Clade 3 GS-like effector Gpa-GSS12 (Globodera pallida). Described as above.
In experiment [10] the target is Globodera pallida Clade 1 glutathione synthetase Gpa-GSS1 (Globodera pallida). The experiment is described as above.

In experiment [1], “Globodera pallida Clade 3 GS-like effector Gpa-GSS17 (natural protein)” gave a stoichiometry N of 2.
“Globodera pallida Clade 3 GS-like effector Gpa-GSS22 (natural protein)” had a stoichiometry N in experiment [2] of 2.
With “Globodera pallida Clade 3 GS-like effector Gpa-GSS30 (natural protein)”, the stoichiometry N in [3] came to 2.
On to “Globodera pallida Clade 3 GS-like effector Gpa-GSS24 (natural protein)”, for which, in experiment [4], the stoichiometry N worked out at 2.
Regarding `N[C@@H](CCC(=O)N[C@@H](CS)C(=O)O)C(=O)O` [γ-EC], the Km result in experiment [5] and in experiment [6] was “The Km for γ-EC for canonical GS enzymes” throughout.
On to “Solanum tuberosum glutathione synthetase St-GSS1 (enzyme)”, for which, in experiment [7], the stoichiometry N came out at 2.
In turn, “Globodera pallida Clade 2 glutathione synthetase Gpa-GSS5 (enzyme)” yielded a stoichiometry N in [8] of 2.
In experiment [9], “Globodera pallida Clade 3 GS-like effector Gpa-GSS12 (natural protein)” showed a stoichiometry N of 2.
Turning to “Globodera pallida Clade 1 glutathione synthetase Gpa-GSS1 (enzyme)”, the stoichiometry N in experiment [10] is 2.

The values above are taken from publication PMC5919673, “Effector gene birth in plant parasitic nematodes: Neofunctionalization of a housekeeping glutathione synthetase gene” (PLoS Genetics, 2018).
